The target in the experiment is His-sclerostin loop2 (Limits are not printed (Table S1 not shown). Loop2 taken by convention as the cystine-knot segment Cys-Cys, mature 84-109 in mouse. The paper's mature numbering (I94..W99, with V97 specific to mouse)). Description: BLI; His-sclerostin loop2 loaded on anti-penta-HIS (HIS1K) biosensors, immersed in ApoER2-LA7 at different concentrations. The settings on record: both partners purified. (In general: In BLI a coated tip is dipped into the sample, and binding shifts an interference pattern.)
Target sequence (chain, as listed by the source): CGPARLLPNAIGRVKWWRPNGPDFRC

B1: ApoER2-LA7 (P290-L326) (peptide)
peptide: PCRENEFQCGDGTCVLAIKRCNQERDCPDGSDEAGCL
notes: LDLR type A repeat 7 (LA7) of ApoER2, P290-L326; The form with D-residues at the first and last three positions was used only in vivo and is not this molecule; also called ApoER2-Pep; ApoER2 peptide tool
B1 showed a Kd of 1900 nM.

By Kd is commonly meant a measure of binding affinity in units of concentration. Read a high Kd as weaker binding.
